Target: Human Plasma Fibronectin (human)
Assay: ITC

Substance | Kd | stoichiometry N | dH
20 kDa PEG-FUD (peptide) | 10 nM | 1.63 | –
10 kDa PEG-FUD (peptide) | 4.6 nM | – | –
Functional Upstream Domain (FUD) peptide | 6 nM | – | –
40 kDa PEG-FUD (peptide) | 14.7 nM | – | -32.5 kcal/mol
